The results in this text go back to article PMC2944808 (2010).

This test addresses T1, Chordin VWC2 (UniProt Q9H2X0).
T1 chain: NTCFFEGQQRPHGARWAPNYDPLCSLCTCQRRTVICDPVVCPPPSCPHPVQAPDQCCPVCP
Put plainly: SPR.

B1: Crossveinless-2 (protein)
chain: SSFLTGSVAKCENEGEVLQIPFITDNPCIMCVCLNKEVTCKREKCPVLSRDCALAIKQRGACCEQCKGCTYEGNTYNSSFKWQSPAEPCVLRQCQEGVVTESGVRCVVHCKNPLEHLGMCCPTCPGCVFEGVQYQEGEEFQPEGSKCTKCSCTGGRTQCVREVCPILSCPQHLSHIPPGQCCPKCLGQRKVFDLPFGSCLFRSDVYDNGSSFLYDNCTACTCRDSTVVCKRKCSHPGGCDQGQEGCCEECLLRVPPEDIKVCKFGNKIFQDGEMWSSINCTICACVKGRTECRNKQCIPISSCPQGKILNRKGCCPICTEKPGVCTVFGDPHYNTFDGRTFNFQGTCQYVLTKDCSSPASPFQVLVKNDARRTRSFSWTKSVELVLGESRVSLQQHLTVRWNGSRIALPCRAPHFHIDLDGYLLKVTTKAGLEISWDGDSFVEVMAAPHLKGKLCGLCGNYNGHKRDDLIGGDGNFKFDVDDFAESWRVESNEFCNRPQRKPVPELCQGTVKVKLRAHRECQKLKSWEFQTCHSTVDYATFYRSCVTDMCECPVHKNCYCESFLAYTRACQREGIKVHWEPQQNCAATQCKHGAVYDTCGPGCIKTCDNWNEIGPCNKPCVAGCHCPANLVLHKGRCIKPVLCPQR
As for B1, the equilibrium dissociation constant (Kd) was found to be 5 nM.
